Test results published in article doi:10.1101/2020.07.31.231399.

What was measured:
[1] = biological target: M. sp. JS623 type IV-B Csf2 (Cas7-like backbone subunit), N-terminally Strep-tagged (Mycobacterium sp. JS623); assay: cryo-EM structure
[2] = biological target: M. sp. JS623 type IV-B Csf4 (Cas11 small subunit) (Mycobacterium sp. JS623); assay: cryo-EM structure

M. sp. JS623 type IV-B Csf2 (Cas7-like backbone subunit), N-terminally Strep-tagged (natural protein)
stoichiometry N [1]: 7

M. sp. JS623 type IV-B Csf4 (Cas11 small subunit) (natural protein)
stoichiometry N [2]: 5
